The target in the assay is 14-3-3ζ (UniProt P63104). Kind of assay: anti-HA co-IP, Myc Western blot. The conditions noted are these: reference: wild-type Myc-Stat3 (688–770); sites S727.

“Stat3 C-terminal region, 688-770 (from UniProt P40763) S727A”: the “binding against the reference” value is reported as “lost”.

Source of the values: publication PMC3261159.
